Blank lines part the entries; values can stand above or below the substance they belong to.
What was measured:
[1] = biological target: APP solubilized from human brain membranes (human (endogenous in brain frontal cortex)) (UniProt P05067); test: sucrose density gradient ultracentrifugation; continuous 5-20% sucrose gradient, 0.15 M NaCl, 50 mM MgCl2, 0.5% Brij 97, 50 mM Tris-HCl pH 7.4; 250,000 x g, 4 hr, 4°C; fractions immunoblotted; markers β-galactosidase, catalase, alkaline phosphatase
[2] = biological target: APP solubilized from human brain membranes (human (endogenous in brain frontal cortex)) (UniProt P05067); test: native gel or EMSA; blue native-PAGE, NativePAGE Novex 4-16% Bis-Tris gels, samples with G-250 additive and dodecylmaltoside; brain membrane extracts and CSF; immunoblot with anti-APP antibodies
[3] = biological target: soluble full-length APP (sAPPf) (human (endogenous in CSF)) (UniProt P05067); test: co-IP + ELISA; CSF of AD and NDC subjects measured by sandwich ELISA (IBL sAPPα, IBL sAPPβ, or Novex kit that detects sAPPf and sAPPα) before and after immunoprecipitation with Sigma-Ct or IBL-β; read-out is the loss from the sample
[4] = biological target: sAPPβ (sAPP fragment generated after β-secretase cleavage) (human (endogenous in CSF)); test: as above

Substance: APP solubilized from human brain membranes (from UniProt P05067 18-770) (natural protein)
stoichiometry N [1]: 2
stoichiometry N [2]: 2

percent decrease of the ELISA level after immunoprecipitation of sAPPf (Sigma-Ct) [3]: 33%
Substance: sAPPα (sAPP fragment generated after α-secretase cleavage) (domain or fragment)

percent decrease of the ELISA level after immunoprecipitation of sAPPf (Sigma-Ct) [3]: 27%
Substance: sAPPβ (sAPP fragment generated after β-secretase cleavage) (domain or fragment)

percent decrease of the ELISA level of sAPPf plus sAPPα after immunoprecipitation of sAPPβ (IBL-β) [4]: 89%
Substance: soluble full-length APP (sAPPf) (from UniProt P05067 18-770) (natural protein)

From publication PMC4298044
